Source: patent US20260284241A1, “DOSAGE REGIMEN FOR SHORT-LIVED RADIOISOTOPE” (AdvanCell Pty Limited, priority 2023, published 2026)

Test system: metastatic castration-resistant prostate cancer
Assay: 212Pb SPECT/CT imaging (biodistribution) in a patient with metastatic castration-resistant prostate cancer
Type: in vivo, human
Details: 60 MBq
Procedure: To gauge the biodistribution and inform patient tolerability of a ^212Pb radiopharmaceutical comprising an acetamide-based chelator, 60 MBq of ^212Pb-ADVC001 was administered to a person with metastatic castration-resistant prostate cancer. SPECT/CT imaging was performed at 1.5, 5, 20, and 28 h following infusion. […] FIG. 3B depicts sagittal and coronal images at 1.5 h after injection (p.i.). Further details are published in Griffths et al., Journal of Nuclear Medicine, 2024, 65 (7), the entire contents of which are hereby incorporated herein by reference.

HO-Glu-CO-Lys[SubA-D-Lys-D-Phe-D-Tyr(3I)-(Pent-^212Pb-DO3AM)]-OH [^212Pb-ADVC001]
kidney clearance (patient with mCRPC, SPECT/CT (FIG. 3A)): rapid kidney clearance
tumour uptake on 212Pb SPECT/CT images (person with mCRPC, SPECT/CT at 1.5, 5, 20 and 28 h following infusion): rapid tumour uptake
